According to patent publication US20110172168A1 (MEDIGENE, published 2011):

biological target: T1, CEA-derived … (SEQ ID NO: 71)-HLA-A*0201 complex (biotin on the C-terminal biotinylation tag (enzymatic, BirA)); assay: Biacore SPR, pMHC immobilised
T1 construct: also called soluble biotinylated HLA-A2-peptide complex; not shown: C-terminal biotinylation tag that replaces the transmembrane and cytoplasmic domains
Protocol: SPR measures changes in refractive index expressed in response units (RU) near a sensor surface within a small flow cell, a principle that can be used to detect receptor ligand interactions and to analyse their affinity and kinetic parameters. The probe flow cells were prepared by immobilising the pMHC complexes in flow cells via biotin-tag binding. The assay was then performed by passing soluble ILT over the surfaces of the different flow cells at a constant flow rate, measuring the SPR response in doing so.

Row | Binder | Kd [nM] | koff [s⁻¹]
1 | SEQ ID NO 7 (receptor) MAGHLPKPTLWAEPGSVITMDQPVTLRCQGGQETQEYRLYREKKTAPWITRIPQELVKKGQFPIPSITWEHAGRYRCYYGSDTSQWSASSDPLELVVTGVYIKPTLSAQPSPVVNSGGNVTLQCDSQVAFDGFILCKEGEDEHPQCLNSQPHARGSSRAIFSVGPVSPSRRWWYRCYAYPIWTPYEWSLPSDLLELDVDG | ≤ 1000 | ≤ 2
2 | SEQ ID NO 8 (receptor) MAGHLPKPTLWAEPGSVITMDQPVTLRCQGGQETQEYRLYREKKTAPWITRIPQELVKKGQFPIPSITWEHAGRYRCYYGSDTSQWSASSDPLELVVTGVYIKPTLSAQPSPVVNSGGNVTLQCDSQVAFDGFILCKEGEDEHPQCLNSQPHARGSSRAIFSVGPVSPSRRWWYRCYAYVAWAPYEWSLPSDLLELDVDG | ≤ 1000 | ≤ 2
3 | SEQ ID NO 9 (receptor) MAGHLPKPTLWAEPGSVITMDQPVTLRCQGGQETQEYRLYREKKTAPWITRIPQELVKKGQFPIPSITWEHAGRYRCYYGSDTSQWSASSDPLELVVTGVYIKPTLSAQPSPVVNSGGNVTLQCDSQVAFDGFILCKEGEDEHPQCLNSQPHARGSSRAIFSVGPVSPSRRWWYRCYAYMNWAPYEWSLPSDLLELDVDG | ≤ 1000 | ≤ 2
4 | SEQ ID NO 10 (receptor) MAGHLPKPTLWAEPGSVITMDQPVTLRCQGGQETQEYRLYREKKTAPWITRIPQELVKKGQFPIPSITWEHAGRYRCYYGSDTSQWSASSDPLELVVTGVYIKPTLSAQPSPVVNSGGNVTLQCDSQVAFDGFILCKEGEDEHPQCLNSQPHARGSSRAIFSVGPVSPSRRWWYRCYAYTDYSPYEWSLPSDLLELDVDG | ≤ 1000 | ≤ 2
5 | SEQ ID NO 11 (receptor) MAGHLPKPTLWAEPGSVITMDQPVTLRCQGGQETQEYRLYREKKTAPWITRIPQELVKKGQFPIPSITWEHAGRYRCYYGSDTSQWSASSDPLELVVTGVYIKPTLSAQPSPVVNSGGNVTLQCDSQVAFDGFILCKEGEDEHPQCLNSQPHARGSSRAIFSVGPVSPSRRWWYRCYAYVDWFPYEWSLPSDLLELDVDG | ≤ 1000 | ≤ 2
6 | SEQ ID NO 12 (receptor) MAGHLPKPTLWAEPGSVITMDQPVTLRCQGGQETQEYRLYREKKTAPWITRIPQELVKKGQFPIPSITWEHAGRYRCYYGSDTSQWSASSDPLELVVTGVYIKPTLSAQPSPVVNSGGNVTLQCDSQVAFDGFILCKEGEDEHPQCLNSQPHARGSSRAIFSVGPVSPSRRWWYRCYAYVSYWPYEWSLPSDLLELDVDG | ≤ 1000 | ≤ 2
7 | SEQ ID NO 13 (receptor) MAGHLPKPTLWAEPGSVITMDQPVTLRCQGGQETQEYRLYREKKTAPWITRIPQELVKKGQFPIPSITWEHAGRYRCYYGSDTSQWSASSDPLELVVTGVYIKPTLSAQPSPVVNSGGNVTLQCDSQVAFDGFILCKEGEDEHPQCLNSQPHARGSSRAIFSVGPVSPSRRWWYRCYAYPAWTPYEWSLPSDLLELDVDG | ≤ 1000 | ≤ 2
8 | SEQ ID NO 14 (receptor) MAQHLPKPTLWAEPGSVITMDQPVTLRCQGGQETQEYRLYREKKTAPWITRIPQELVKKGQFPIPSITWEHAGRYRCYYGSDTSQWSASSDPLELVVTGVYIKPTLSAQPSPVVNSGGNVTLQCDSQVDFDGFILCKEGEDEHPQCLNSQPHARGSSRAIFSVGPVSPSRRWWYRCYAYDSNSPYEWSLPSDLLELDVDG | ≤ 1000 | ≤ 2
9 | SEQ ID NO 15 (receptor) MAQHLPKPTLWAEPGSVITMDQPVTLRCQGGQETQEYRLYREKKTAPWITRIPQELVKKGQFPIPSITWEHAGRYRCYYGSDTSQWSASSDPLELVVTGVYIKPTLSAQPSPVVNSGGNVTLQCDSQVSFDGFILCKEGEDEHPQCLNSQPHARGSSRAIFSVGPVSPSRRWWYRCYAYDSNSPYEWSLPSDLLELDVDG | ≤ 1000 | ≤ 2
10 | SEQ ID NO 16 (receptor) MAQHLPKPTLWAEPGSVITMDQPVTLRCQGGQETQEYRLYREKKTAPWITRIPQELVKKGQFPIPSITWEHAGRYRCYYGSDTSQWSASSDPLELVVTGVYIKPTLSAQPSPVVNSGGNVTLQCDSQVTFDGFILCKEGEDEHPQCLNSQPHARGSSRAIFSVGPVSPSRRWWYRCYAYDSNSPYEWSLPSDLLELDVDG | ≤ 1000 | ≤ 2
11 | SEQ ID NO 17 (receptor) MAQHLPKPTLWAEPGSVITMDQPVTLRCQGGQETQEYRLYREKKTAPWITRIPQELVKKGQFPIPSITWEHAGRYRCYYGSDTSQWSASSDPLELVVTGVYIKPTLSAQPSPVVNSGGNVTLQCDSQVAYDGFILCKEGEDEHPQCLNSQPHARGSSRAIFSVGPVSPSRRWWYRCYAYDSNSPYEWSLPSDLLELDVDG | ≤ 1000 | ≤ 2
12 | SEQ ID NO 18 (receptor) MAGHLPKPTLWAEPGSVITMDQPVTLRCQGGQETQEYRLYREKKTAPWITRIPQELVKKGQFPIPSITWEHAGRYRCYYGSDTSQWSASSDPLELVVTGVYIKPTLSAQPSPVVNSGGNVTLQCDSQVAFDGFILCKEGEDEHPQCLNSQPHARGSSRAIFSVGPVSPSRRWWYRCYAYMSWAPYEWSLPSDLLELDVDG | ≤ 1000 | ≤ 2
13 | SEQ ID NO 20 (receptor) MAGHLPKPTLWAEPGSVITMDQPVTLRCQGGQETQEYRLYREKKTAPWITRIPQELVKKGQFPIPSITWEHAGRYRCYYGSDTSQWSASSDPLELVVTGVYIKPTLSAQPSPVVNSGGNVTLQCDSQVAFDGFILCKEGEDEHPQCLNSQPHARGSSRAIFSVGPVSPSRRWWYRCYAYPDFTPYEWSLPSDLLELDVDG | ≤ 1000 | ≤ 2
14 | SEQ ID NO 21 (receptor) MAGHLPKPTLWAEPGSVITMDQPVTLRCQGGQETQEYRLYREKKTAPWITRIPQELVKKGQFPIPSITWEHAGRYRCYYGSDTSQWSASSDPLELVVTGVYIKPTLSAQPSPVVNSGGNVTLQCDSQVAFDGFILCKEGEDEHPQCLNSQPHARGSSRAIFSVGPVSPSRRWWYRCYAYPWFTPYEWSLPSDLLELDVDG | ≤ 1000 | ≤ 2
15 | SEQ ID NO 23 (receptor) MAGHLPKPTLWAEPGSVITMDQPVTLRCQGGQETQEYRLYREKKTAPWITRIPQELVKKGQFPIPSITWEHAGRYRCYYGSDTSQWSASSDPLELVVTGVYIKPTLSAQPSPVVNSGGNVTLQCDSQVAFDGFILCKEGEDEHPQCLNSQPHARGSSRAIFSVGPVSPSRRWWYRCYAYVEWLPYEWSLPSDLLELDVDG | ≤ 1000 | ≤ 2
16 | SEQ ID NO 30 (receptor) MAGHLPKPTLWAEPGSVITQGSPVTLRCQGGQETQEYRLYREKKTAPWITRIPQELVKKGQFPIPSITWEHAGRYRCYYGSDTSQWSASSDPLELVVTGVYIKPTLSAQPSPVVNSGGNVTLQCDSQVAFDGFILCKEGEDEHPQCLNSQPHARGSSRAIFSVGPVSPSRRWWYRCYAYPIWTPYEWSLPSDLLELDVDG | ≤ 1000 | ≤ 2
